Patent publication US12365732 (23ANDME, dated 2025)
Numbering of substitutions follows the chain as printed. Names and notes keep the numbering of the source.

Key:
[1] = biological target: T1, hu-CD96 isoform 2 on CHO cells (human, UniProt P40200 22-585); assay: FACS, Ab 0.0032 nM
T1 construct: also called CHO-CD96 (isoform 2); CD96-CHOs
T1 sequence: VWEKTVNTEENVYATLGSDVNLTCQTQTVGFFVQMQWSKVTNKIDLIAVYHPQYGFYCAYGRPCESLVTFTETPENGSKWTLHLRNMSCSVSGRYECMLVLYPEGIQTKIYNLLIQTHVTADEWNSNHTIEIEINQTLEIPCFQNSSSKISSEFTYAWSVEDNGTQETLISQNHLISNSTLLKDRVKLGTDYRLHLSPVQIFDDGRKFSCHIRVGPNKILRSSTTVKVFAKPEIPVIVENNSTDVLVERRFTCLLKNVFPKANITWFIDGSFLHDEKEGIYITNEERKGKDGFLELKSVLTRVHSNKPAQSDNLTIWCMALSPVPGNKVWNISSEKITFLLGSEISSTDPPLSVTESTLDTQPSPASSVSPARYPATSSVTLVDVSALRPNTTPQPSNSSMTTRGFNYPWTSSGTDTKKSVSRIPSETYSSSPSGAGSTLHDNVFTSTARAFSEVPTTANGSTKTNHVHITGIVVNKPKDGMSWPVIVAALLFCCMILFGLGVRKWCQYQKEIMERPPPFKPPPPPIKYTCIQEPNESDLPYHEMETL
Method: Isoform 1 of hu-CD96 (Origene, catalog #RC213845) was transiently expressed in HEK293T cells following standard lipofectamine or Fugene transfection protocol. […] Cells were washed, and binding was detected by incubation with anti-mouse IgG-FITC (Biolegend, catalog #406001) for 20 minutes at 4° C. Cell binding was analyzed by flow cytometry with a CytoFLEX (Beckman Coulter). Binding curves were calculated as a percentage of cells positive for bound antibody.
Isoform 2 of hu-CD96 (DNA construct: Origene, catalog #RC221005) was expressed on a single-cell-clone-derived CHO stable cell line. Binding of the anti-CD96 antibodies to the CHO cells were determined as described above with isoform 1 of hu-CD96.

[2] = biological target: T2, cynomolgus monkey CD96 on cynomolgus monkey PBMCs (cynomolgus monkey, UniProt A0A2K5TWV6 22-569); assay: FACS, Ab 3.2 nM
T2 construct: whole, on cells
T2 sequence: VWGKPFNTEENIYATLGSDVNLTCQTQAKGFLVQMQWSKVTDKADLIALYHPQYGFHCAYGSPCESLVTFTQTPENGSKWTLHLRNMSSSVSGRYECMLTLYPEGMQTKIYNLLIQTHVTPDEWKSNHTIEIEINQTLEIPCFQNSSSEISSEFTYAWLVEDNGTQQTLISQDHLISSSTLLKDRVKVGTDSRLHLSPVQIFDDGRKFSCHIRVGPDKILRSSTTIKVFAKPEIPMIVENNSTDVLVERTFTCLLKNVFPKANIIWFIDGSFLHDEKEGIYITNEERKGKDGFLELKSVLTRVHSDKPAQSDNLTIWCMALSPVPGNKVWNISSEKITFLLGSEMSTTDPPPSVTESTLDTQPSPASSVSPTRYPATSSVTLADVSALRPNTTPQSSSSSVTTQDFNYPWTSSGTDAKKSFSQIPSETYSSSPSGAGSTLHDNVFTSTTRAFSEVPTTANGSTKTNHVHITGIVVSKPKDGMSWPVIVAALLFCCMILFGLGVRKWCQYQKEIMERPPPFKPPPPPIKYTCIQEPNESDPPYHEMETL
Method: The ability of the anti-CD96 antibodies to bind primary immune cells from human and cynomolgus monkey with lower level of receptor expression was measured. Human PBMCs (StemCell Technologies, catalog #70025) and cynomolgus monkey PBMCs (Primate Biologicals, catalog #CM-MC) were incubated with human TruStain FcX (Biolegend, catalog #422302) for 10 minutes at 4° C., followed by incubation with an anti-CD96 antibody for 20 minutes at 4° C. Cells were washed and the anti-CD96 antibody binding was detected by incubation with anti-mouse IgG-PE (Thermo Fisher, catalog #M30204) or anti-human IgG (Fab) 2-PE (Thermo Fisher, catalog #H10104) for 20 minutes at 4° C. Cells were washed, and immune subtypes were labeled with anti-CD3 (BD, catalog #557705), anti-CD4 (Biolegend, catalog #317424) and anti-CD8 (BD, catalog #557760) for 20 minutes at 4° C. Cell binding was analyzed by flow cytometry with a CytoFLEX (Beckman Coulter). Binding curves were calculated as a percentage of cells positive for bound antibody in the cell type of interest.

[3] = biological target: T1, hu-CD96 isoform 2 on CHO cells; assay: FACS, CD155-Fc-FLAG 10 nM, Ab 100 nM
Method: CHO cells stably expressing isoform 2 of hu-CD96 (Origene, catalog #RC221005) were incubated with anti-CD96 antibodies for 20 minutes at 4° C. The cells were washed, and then incubated with 10 nM human CD155-Fc-FLAG for 30 minutes at 4° C. Cells were washed, and then human CD155-Fc-FLAG binding was detected by incubation with anti-FLAG-APC (Columbia Biosciences, catalog #D3-1718-1MG) for 20 minutes at 4° C. Cell binding was analyzed by flow cytometry with a CytoFLEX (Beckman Coulter). CD155 binding is represented as median fluorescence intensity (MedFI).
As shown in Table 20 (below), the anti-CD96 antibodies, mAb1.v7.NGS8, mAb1.v7.NGS9, mAb1.v7.NGS10, mAb1.v7.NGS11, and h10G1 inhibited soluble hu-CD155 binding to CD96-expressing CHO cells dose-dependently and potently. The antibody NK92.39 (Fuchs et al., 2004; Biolegend catalog #338405) inhibited receptor binding similarly.

B1: 10G1 (clone 10G1.3G8), purified hybridoma antibody (antibody, V domains shown)
VH: QIQLVQSGPELKKPGETVKISCKASGYPFTTYGMSWVKQAPGKGLKWMGWINTDSGVPTYADDFKGRFAFSLETSANTAYLQINSLKNEDAATYFCARNIYYGWGNFDYWGQGTILTVSS
VL: DILMTQSPTTLSVTPGETVSLSCRASQDIYRNLHWYQQKSQGTPRLLIKHASDSISGIPSRFTGSGSGTDFTLSINSVKPEDEGIYYCLQGYSMPYTFGGGTKLEIK
notes: murine hybridoma IgG
**Q.** B1 was tested. Which “% positive” value [1] did it give?
**A.** The value was 0.1%.

B2: 9H4, purified hybridoma antibody (antibody, V domains shown)
VH: EVQLLETGGGLVKSGGSLKLSCAASGFTFSDYYMYWVRQTPEKRLEWVAAISDDGTYTYYPDSVKGRFTISRDNANNYLYLQMSSLKSEDTAIYYCAKAGSYDYFDVWGAGTTVTVSS
VL: DIVLTQSPASLAVSLGQRAIISCKASQSVTFADTGLMHWYQQKPGQQPKLLIYRASNLEVGVPTRFSGSGSGTDFTLNIHPVEEEDVATYYCQQSREYPWTFGGGTKLEIK
notes: murine hybridoma IgG
**Q.** Which “% positive” value [1] does the source give for B2 here?
**A.** Its value is 0.3%.

B3: 7E5, purified hybridoma antibody (antibody, V domains shown)
VH: QVQLKESGPGLVAPSQSLSIICTVSGFSLTNYGIHWIRQPPGKGLEWLGIIWAGGSTNYNSALMSRLTISKDNSKSQVFLKMNSLQTNDTAIYYCARVSMMGFAYWGQGTLVTVSA
VL: QAVVTQESALTTSPGETVTLTCRSSTGAVTTSNYANWVQEKPDHLFTGLIGGTNNRAPGVPARFSGSLIGDKAALTITGAQTEDEAIYFCSLWYGSHWVFGGGTKLTVL
notes: murine hybridoma IgG
**Q.** B3 was tested. Which “% positive” value [1] did it give?
**A.** Its value is 0.1%.

B4: mAb1.v7 IgG (humanized 12F8) (antibody, V domains shown)
VH: EVQLVQSGAEVKKPGASVKVSCKASGFTFTNNWMHWVRQAPGQGLEWIGMIHPNSGITNINEKFKNRVTMTTDTSTSTAYMELRSLRSEDTAVYYCRSDGTYEGYFDYWGQGTLVTVSS
VL: DIQLTQSPSSLSASVGDRVTITCKASQNVGTAIVWYQQKPGKAPKVLIYSASTRYTGVPSRFSGSGSGTDFTLTISSLQPEDFATYYCQQYSSSPLTFGQGTKVEIKG
notes: human IgG1 N297G
**Q.** Which “% positive” value [1] does the source give for B4 here?
**A.** Its value is 0.5%.

B5: mAb1.v7.NGS9 IgG (antibody, V domains shown)
VH: B4 VH with W33F, P53A, T101V
VL: B4 VL
notes: human IgG1 N297G
**Q.** B5 was tested. Which “% positive” value [2] did it give?
**A.** The value was 77.9%.

**Q.** What about the “CD155-Fc binding (MedFI)” value [3] of the same binder?
**A.** The value was 4140 MedFI.

B6: mAb1.v7.NGS10 IgG (antibody, V domains shown)
VH: B4 VH with W33F, M50F, P53A, T101I
VL: B4 VL
notes: human IgG1 N297G
**Q.** Which results are given for B6?
**A.** % positive [2]: 76.7%; CD155-Fc binding (MedFI) [3]: 5110 MedFI

B7: mAb1.v7.NGS11 IgG (antibody, V domains shown)
VH: B4 VH with W33F, M50F, P53A, T101V
VL: B4 VL
notes: human IgG1 N297G
**Q.** With B7 as the binder, how does the “% positive” value [2] read?
**A.** The value was 78.4%.

**Q.** And the “CD155-Fc binding (MedFI)” value [3]?
**A.** The value was 4210 MedFI.

B8: h10G1 IgG (humanized 10G1) (antibody, V domains shown)
VH: EIQLVQSGSELKKPGASVKVSCKASGYPFTTYGMSWVRQAPGQGLEWMGWINTDSGVPTYADDFKGRFVFSLDTSVSTAYLQISSLKAEDTAVYFCARNIYYGWGNFDYWGQGTLVTVSS
VL: EIVMTQSPDFQSVTPKEKVTITCRASQDIYRNLHWYQQKPDQTPKLLIKHASDSISGIPSRFSGSGSGTDFTLTINSLEAEDAAAYYCLQGYSMPYTFGGGTKVEIKG
notes: human IgG1 N297G
**Q.** Which “% positive” value [2] does the source give for B8 here?
**A.** The value was 58.1%.

**Q.** What about the “CD155-Fc binding (MedFI)” value [3] of the same binder?
**A.** The value was 5120 MedFI.
